# Experimental data published in publication PMC9865888.
# Target: S. aureus DNA gyrase fusion truncate GyrB27:A56 (GKdel) (Staphylococcus aureus) (UniProt P66937)
# Assay: crystal structure; 2.8 Å, space group P6_(1); microbatch under oil, 20 °C; complex with 20-447T DNA duplex, zoliflodacin and MnCl2; 90 mM Bis-Tris pH 6.3, 9% PEG 5 kMME
substance,measurement,value
S. aureus DNA gyrase fusion truncate GyrB27:A56 (GKdel) (from UniProt P66937 409-644; Q99XG5 2-491) (enzyme),stoichiometry N,2
